According to paper PMC11933697 (Nature Communications, 2025):
Numbering of substitutions follows the chain as printed. In names and notes the source's numbering stands. Where two headings read alike, the source gives them in different places.

Tests used:
Experiment in all cases: ITC
[1] = molecular target: T1, hMED25 ACID (389-543) (human, UniProt Q71SY5 389-543)
T1 sequence (looked up): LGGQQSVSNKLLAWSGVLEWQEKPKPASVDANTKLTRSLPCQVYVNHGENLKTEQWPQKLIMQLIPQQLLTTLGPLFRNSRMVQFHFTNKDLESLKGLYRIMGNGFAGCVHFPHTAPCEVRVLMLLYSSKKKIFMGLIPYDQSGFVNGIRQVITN

[2] = molecular target: T1, hMED25 ACID (389-543); remark: listed apart in the source
[3] = molecular target: T2, NS1/MED25 ACID complex (human respiratory syncytial virus …, UniProt P0DOE9 1-139; Q71SY5 389-543)
T2 sequence (looked up) 1: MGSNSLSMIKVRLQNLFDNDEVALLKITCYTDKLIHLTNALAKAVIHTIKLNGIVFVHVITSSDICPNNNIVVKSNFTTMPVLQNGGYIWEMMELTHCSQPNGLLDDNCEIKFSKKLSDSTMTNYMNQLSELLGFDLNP
T2 sequence (looked up) 2: T1 sequence (looked up)

[4] = molecular target: T3, MED25 ACID I541A/T542A (human, UniProt Q71SY5 389-543, I541A | T542A)
T3 sequence (looked up): T1 sequence (looked up) with I153A, T154A

[5] = molecular target: T4, MED25 ACID I537A/R538A (human, UniProt Q71SY5 389-543, I537A | R538A)
T4 sequence (looked up): T1 sequence (looked up) with I149A, R150A

B1: NS1 E110A (natural protein, human respiratory syncytial virus (hRSV), UniProt P0DOE9 1-139, looked up)
chain: T2 sequence (looked up) 1 with E110A
Work on B1 yielded a Kd [1] of 1740 ± 370 nM.

B2: NS1 ΔDLNP (domain or fragment, human respiratory syncytial virus (hRSV), UniProt P0DOE9 1-135, looked up)
chain: MGSNSLSMIKVRLQNLFDNDEVALLKITCYTDKLIHLTNALAKAVIHTIKLNGIVFVHVITSSDICPNNNIVVKSNFTTMPVLQNGGYIWEMMELTHCSQPNGLLDDNCEIKFSKKLSDSTMTNYMNQLSELLGF
B2: binds [1].

B3: hATF3 bZIP (88-149) (domain or fragment, human, UniProt P18847 88-149, looked up)
chain: RKKRRRERNKIAAAKCRNKKKEKTECLQKESEKLESVNAELKAQIEELKNEKQHLIYMLNLH
In the case of B3, the Kd [2] is reported as 1290 ± 321 nM and the Kd [3] is reported as 3080 ± 1320 nM.

B4: NS1 N85A (natural protein, human respiratory syncytial virus (hRSV), UniProt P0DOE9 1-139, looked up)
chain: T2 sequence (looked up) 1 with N85A
B4 gave a Kd [1] of 41 ± 8 nM.

B5: NS1 Y125A (natural protein, human respiratory syncytial virus (hRSV), UniProt P0DOE9 1-139, looked up)
chain: T2 sequence (looked up) 1 with Y125A
B5 was tested, and the Kd [1] was 182 ± 20 nM.

B6: hRSV NS1 (1-139) (natural protein, human respiratory syncytial virus (hRSV), UniProt P0DOE9 1-139, looked up)
chain: T2 sequence (looked up) 1
B6 gave a Kd [1] of 41 ± 5 nM, a Kd [4] of 116 ± 30 nM and a Kd [5] of 82 ± 10 nM.
